T1: human LAG3 (construct not stated) (human, UniProt P18627 23-450, limits assumed)
T1 construct: also called human LAG3 protein; antigen
T1 sequence (looked up): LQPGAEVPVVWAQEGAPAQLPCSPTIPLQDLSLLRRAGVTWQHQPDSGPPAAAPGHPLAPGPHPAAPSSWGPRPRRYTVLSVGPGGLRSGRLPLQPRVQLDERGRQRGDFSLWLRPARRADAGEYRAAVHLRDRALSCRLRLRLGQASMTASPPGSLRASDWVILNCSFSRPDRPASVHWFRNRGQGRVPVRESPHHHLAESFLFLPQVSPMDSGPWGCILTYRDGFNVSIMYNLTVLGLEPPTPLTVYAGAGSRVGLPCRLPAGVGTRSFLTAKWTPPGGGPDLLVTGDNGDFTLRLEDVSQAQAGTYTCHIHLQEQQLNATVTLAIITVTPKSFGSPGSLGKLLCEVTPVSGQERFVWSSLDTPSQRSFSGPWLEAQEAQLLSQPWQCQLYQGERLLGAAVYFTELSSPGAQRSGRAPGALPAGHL

T2: recombinant his-tag human LAG3-ECD protein (human, UniProt P18627 23-450)
T2 construct: extracellular domain; not shown: his tag
T2 sequence (looked up): T1 sequence (looked up)

B1: A1 (antibody, V domains shown)
VH: EVQLVESGGGLVQPGGSLRLSCAASGFTFSSYDMSWVRQAPGKSLEWVATISDAGGYIYYRDSVKGRFTISRDNAKNSLYLQMNSLRDEDTAVYICARELLHRYALDYWGQGTTVTVSS
VL: DIQMTQSPSSLSASVGDRVTITCKASQDVTPAVAWYQQKPGKAPKLLIYSTSSRYTGVPSRFSGSGSGTDFTFTISSLQPEDIATYYCQQHYTTPLTFGQGTKLEIK
B2: B3 (antibody, V domains shown)
VH: B1 VH with L100F, L101G, H102K
VL: B1 VL with S26K, Q89M
B3: C3 (antibody, V domains shown)
VH: B1 VH with L101H, H102F
VL: B1 VL
B4: A2 (antibody, V domains shown)
VH: B1 VH with L101R, H102G
VL: B1 VL
B5: B1 (antibody, V domains shown)
VH: B1 VH with L100I, L101F, H102N
VL: B1 VL
B6: C4 (antibody, V domains shown)
VH: B1 VH with L100F, L101G, H102K, Y108S
VL: B1 VL with T30W, Y92S
B7: C6 (antibody, V domains shown)
VH: B1 VH with L101Y, H102F
VL: B1 VL
B8: A3 (antibody, V domains shown)
VH: B1 VH with L100F, L101G, H102K
VL: B1 VL with Y92S, T93D, T94A
B9: 147H-6 (antibody, V domains shown)
VH: QVQLVQSGAEVKKPGASVKVSCKASGYTFTNYWLGWIKQAPGQGLEWIGDIYPGGDYINYNEKFKGKATLTADTSISTAYMELSRLRSDDTAVYYCARPNLPGDYWGQGTTVTVSS
VL: DIVMTQSPLSLPVTPGEPASISCRSSKSLLHSNGITYLYWYLQKPGQSPQLLIYQVSNLASGVPDRFSGSGSGTDFTLKISRVEAEDVGVYYCAQNLELPWTFGGGTKVEIK
notes: Common light chain; human gamma 1 / kappa constant domains
B10: 147H-7 (antibody, V domains shown)
VH: B9 VH with Y95F
VL: B9 VL
notes: as for B9
B11: 147H-14 (antibody, V domains shown)
VH: B9 VH with Q1E, Y95F
VL: B9 VL
notes: as for B9
B12: 147H chimeric antibody (antibody, V domains shown)
VH: QVQLQQSGSELVRPGTSVKISCKASGYTFTNYWLGWIKQRPGHGLEWIGDIYPGGDYINYNEKFKGKATLSADTSSSTAYMQLSSLTSEDSAVYFCARPNLPGDYWGQGTSVTVSS
VL: B9 VL with S7A, P8A, L9F, L11N, P15L, E17T, P18S, D65G, K79R, V109L
B13: Hu1210-31 (antibody, V domains shown)
VH: B1 VH with S44G, A54G, R61S, D88A, L100F, L101G, H102K
VL: DIQMTQSPSSLSASVGDRVTITCKASQDVTPAVAWYQQKPGKAPKLLIYSTSSRYTGVPSRFSGSGSGTDFTLTISSLQPEDFATYYCQQHYTTPLTFGQGTKLEIKR
notes: Hu1210 VH.5b x Vk.2; human gamma 1 / kappa constant domains
B14: Hu1210-36 (antibody, V domains shown)
VH: B1 VH with A40T, G42E, A54G, R61S, S78N, D88A, L100F, L101G, H102K, T114L
VL: B13 VL
notes: Hu1210 VH.5d (printed 'VH.Sd') x Vk.2; human gamma 1 / kappa constant domains
B15: Hu1210-27 (antibody, V domains shown)
VH: B1 VH with S44G, A54G, R61S, D88A, L100F, L101G, H102K, T114L
VL: B13 VL
notes: Hu1210 VH.5a x Vk.2; human gamma 1 / kappa constant domains
B16: NLAG3-HDB169-S136 (antibody, human IgG1, V domains shown)
VH: QVQLVQSGAEVKKPGSSVKVSCKASGGTFSSYAISWVRQAPGQGLEWMGGIIPIFGTANYAQKFQGRVTITADESTSTAYMELSSLRSEDTAVYYCTRGQDSTWYSSFDYWGQGTLVTVSS
VL: AIRMTQSPSSLSASVGDRVTITCRASQSISSYLNWYQQKPGKAPNLLIYAVSTLQSGVPSRFSGSGSGTVFTLTISSLQPEDFATYFCQQGNSFPLTFGGGTKVEIKR
notes: Short label tied by its unique suffix
B17: NLAG3-HDB323-S161 (antibody, human IgG1, V domains shown)
VH: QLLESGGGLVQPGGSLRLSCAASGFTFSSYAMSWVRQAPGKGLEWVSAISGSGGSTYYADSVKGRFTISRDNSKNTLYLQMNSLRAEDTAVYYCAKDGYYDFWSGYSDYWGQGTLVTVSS
VL: AIQLTQSPSSLSASVGDRVTITCRASEGISGWLAWYQQIPGKAPKLLIYAASSLETGVPSRFSGSGYGTDFTLTISSLQPEDFATYYCQQADSFPFTFGPGTKVEIKR
notes: as for B16

Numbering of substitutions follows the chain as printed.

T3 sequence (Q9NZQ7 19-239 limits assumed): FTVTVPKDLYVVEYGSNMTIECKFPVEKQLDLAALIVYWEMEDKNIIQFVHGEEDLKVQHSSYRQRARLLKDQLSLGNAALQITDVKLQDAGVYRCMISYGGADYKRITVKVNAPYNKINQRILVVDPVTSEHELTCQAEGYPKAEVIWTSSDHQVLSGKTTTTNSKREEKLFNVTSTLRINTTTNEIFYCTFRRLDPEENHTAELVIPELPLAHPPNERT

The first assay addresses T3, human PD-L1 (construct not stated) (human, UniProt Q9NZQ7 19-239, limits assumed).
T3 construct: also called B7-H1 (PD-L1); PD-L1 protein
Put plainly: SPR Biacore, affinity ranking. (Surface plasmon resonance follows binding to a sensor surface in real time, without labels.)
As to B1, the equilibrium dissociation constant (Kd) stood at 1.36 nM, the off-rate (koff) worked out at 0.000276 s⁻¹ and the on-rate (kon) was determined as 203000 M⁻¹ s⁻¹.

Molecule B2 returned a Kd of 2.49 nM, a koff of 0.000296 s⁻¹ and a kon of 119000 M⁻¹ s⁻¹.

B3 returned a Kd of 1.37 nM, a koff of 0.000299 s⁻¹ and a kon of 218000 M⁻¹ s⁻¹.

In turn, B4 came in with a dissociation constant Kd of 2.55 nM, a koff of 0.000475 s⁻¹ and a kon of 187000 M⁻¹ s⁻¹.

B5 gave a Kd of 1.6 nM, a koff of 0.000261 s⁻¹ and a kon of 163000 M⁻¹ s⁻¹.

As to B6, binding was characterised by a dissociation constant (Kd) of 4.5 nM, the koff came to 0.000506 s⁻¹ and the on-rate (kon) was determined as 113000 M⁻¹ s⁻¹.

The molecule B7 showed a Kd of 1.63 nM, an off-rate (koff) of 0.000334 s⁻¹ and a kon of 206000 M⁻¹ s⁻¹.

B8: the Kd turned out to be 1.49 nM, the off-rate (koff) is 0.000324 s⁻¹ and the kon is 218000 M⁻¹ s⁻¹.

A further assay deals with T1, human LAG3 (construct not stated). The experiment in a line: BLI Octet Red 96, affinity ranking. For orientation: In BLI a coated tip is dipped into the sample, and binding shifts an interference pattern.
Take B9: the Kd worked out at 15.3 nM, the koff turned out to be 0.00184 s⁻¹ and the kon is 120000 M⁻¹ s⁻¹.

Regarding B10, the dissociation constant (Kd) was determined as 15.7 nM, the koff stood at 0.00239 s⁻¹ and the kon came to 152000 M⁻¹ s⁻¹.

Turning to B11, the Kd was 23.2 nM, the koff was determined as 0.0025 s⁻¹ and the kon is 108000 M⁻¹ s⁻¹.

The target is the same in a further assay. Put plainly: BLI Octet Red 96, full kinetics, antigen 50-3.125 nM. On the procedure: The binding affinity was calculated by software in Octet® RED96 System.
B9: the Kd was 24.8 nM, the koff was 0.00259 s⁻¹ and the kon came out at 105000 M⁻¹ s⁻¹.

On to B12, for which the affinity, expressed as Kd, was 27.1 nM; the off-rate constant (koff) came to 0.00217 s⁻¹; the on-rate constant (kon) is 80100 M⁻¹ s⁻¹.

Turning to B10, the Kd worked out at 26.5 nM, the koff was 0.00312 s⁻¹ and the kon is 118000 M⁻¹ s⁻¹.

B11 gave a Kd of 20.7 nM, a koff of 0.00204 s⁻¹ and a kon of 98700 M⁻¹ s⁻¹.

The target in another assay is T4, human PD-L1-his taq protein (human, UniProt Q9NZQ7 19-239, limits assumed).
T4 construct: also called recombinant PD-L1 protein; recombinant human PD-L1; not shown: his tag
T4 sequence (Q9NZQ7 19-239 limits assumed): as above
The experiment in a line: SPR Biacore T200, antibody captured, PD-L1-his injected. On the procedure:
The binding of the humanized antibodies to recombinant PD-L1 protein (human PD-L1-his taq) was tested by BIACORE™ using a capture method. The HL1210-3 mouse mAb were captured using anti-mouse Fc antibody coated on a CM5 chip. A series dilution of human PD-L1-his taq protein was injected over captured antibody for 3 mins at a flow rate of […]. The antigen was allowed to dissociate for 900 s. All the experiments were carried out on a Biacore T200.
B13 came in with a Kd of 0.786 nM, a koff of 0.000117 s⁻¹ and a kon of 149000 M⁻¹ s⁻¹.

With B14, the Kd is 0.538 nM, the koff is 7.85e-05 s⁻¹ and the kon was 146000 M⁻¹ s⁻¹.

The target of the next assay is T5, human PD-L1 expressed on mammalian cells (human, UniProt Q9NZQ7 19-290).
T5 construct: whole, on cells; also called PDL1-CHOK1 cells; PDL1-Raji cells
T5 sequence (Q9NZQ7 19-290): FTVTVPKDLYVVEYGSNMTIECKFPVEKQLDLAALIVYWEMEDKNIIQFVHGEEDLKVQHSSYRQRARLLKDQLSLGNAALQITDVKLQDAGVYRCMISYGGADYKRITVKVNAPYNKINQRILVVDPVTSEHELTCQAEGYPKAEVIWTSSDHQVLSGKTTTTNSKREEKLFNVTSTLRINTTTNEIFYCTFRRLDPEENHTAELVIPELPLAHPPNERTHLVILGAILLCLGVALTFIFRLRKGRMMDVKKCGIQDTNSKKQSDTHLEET
Put plainly: FACS receptor blocking on PDL1-CHOK1 cells, competitor Bio-PD1 (30 µg/ml). On the procedure:
To evaluate the blocking effect of humanized antibodies on human PD-L1 expressed on mammalian cells to bind to its receptor PD-1, the FACS-based receptor blocking assay was employed. Briefly, PDL1-CHOK1 cells were firstly incubated with 3-fold serious diluted HL1210-3 mouse mAb starting at 20 μg/ml at RT for 1 hour. After wash by FACS buffer (PBS with 2% FBS), the biotin-labeled huPD-1 were added to each well and incubated at RT for 1 hour. Then, the Streptavidin-PE was added to each well for 0.5 hour post twice wash with FACS buffer. The mean florescence intensity (MFI) of PE was evaluated by FACSAriaIII.
Molecule B15 returned a TOP of 104.

In turn, B13 showed a TOP of 92.9.

In the case of B14, the TOP amounted to 91.8.

The target of another assay is T2, recombinant his-tag human LAG3-ECD …. The experiment in a line: SPR Biacore T200, antibody captured by anti-human Fc, LAG3-ECD-his injected. On the procedure:
The binding of the S20, S24, S27, S31, S87, S119, S120, S128, S136, S161 and T99 antibodies to recombinant his-tag human LAG3-ECD protein was examined by Biacore T200 using a capture method. Anti-LAG3 antibodies were captured using anti-human Fc antibody. The anti-human Fc antibody was coated on chip. Serial concentrations of his-tag human LAG3-ECD protein (0-4 nM) were injected over capture antibodies at the flow rate of 30 μl/min. The dissociation phase was 900 s or 550 s. The Biacore results for the anti-LAG3 antibodies have shown that these anti-LAG3 antibodies are high affinity binder to human LAG3.
Consider B16, for which the dissociation constant (Kd) was determined as 0.104 nM, the koff turned out to be 8.27e-05 s⁻¹ and the kon stood at 798000 M⁻¹ s⁻¹.

With B17, the Kd is 0.892 nM, the koff stood at 0.000553 s⁻¹ and the kon worked out at 620000 M⁻¹ s⁻¹.

The term Kd denotes the constant that tells how readily two partners part at equilibrium. Broadly, the koff is the first-order rate constant of dissociation. The kon is a measure of how fast the partners come together.
